Source: PMC11054257

How the values were obtained:
Test in all cases: SDS-PAGE and Western blot of whole cells (oligomer bands that withstand SDS); 1 OD600 of induced cells in SDS sample buffer, 4~12% SDS-PAGE, PVDF, anti-Flag tag antibody; cells treated with proteinase K or not; positions of monomeric, dimeric and trimeric forms called putative
[1] = biological target: SadA^644 fused with Flag×3 and the UreB epitopes UreB158–172aa and UreB349–363aa (from pSadBA^644-FU2) (Salmonella typhimurium | Helicobacter pylori SS1) (UniProt P69996)
[2] = biological target: SadA^877 fused with N-terminal Flag×3-mScarlet (from pSadBA^877-FM) (Salmonella typhimurium)
[3] = biological target: SadA^877 fused with Flag×3 and the UreB epitopes UreB158–172aa and UreB349–363aa (from pSadBA^877-FU2) (Salmonella typhimurium | Helicobacter pylori SS1) (UniProt P69996)
[4] = biological target: SadA^1171 fused with Flag×3 and the UreB epitopes UreB158–172aa and UreB349–363aa (from pSadBA^1171-FU2) (Salmonella typhimurium | Helicobacter pylori SS1) (UniProt P69996)
[5] = biological target: SadA^1292 fused with Flag×3 and the UreB epitopes UreB158–172aa and UreB349–363aa (from pSadBA^1292-FU2) (Salmonella typhimurium | Helicobacter pylori SS1) (UniProt P69996)
[6] = biological target: SadA^1292 fused with N-terminal Flag×3-mScarlet (from pSadBA^1292-FM) (Salmonella typhimurium)
[7] = biological target: SadA^1292 fused with N-terminal Flag×3-UreBm-mScarlet (from pSadBA^1292-FUM) (Salmonella typhimurium | Helicobacter pylori SS1) (UniProt P69996)

## SadA^644 fused with Flag×3 and the UreB epitopes UreB158–172aa and UreB349–363aa (from pSadBA^644-FU2) (from UniProt P69996)
[1]
  stoichiometry N: 3

## SadA^877 fused with N-terminal Flag×3-mScarlet (from pSadBA^877-FM)
[2]
  stoichiometry N: 3

## SadA^877 fused with Flag×3 and the UreB epitopes UreB158–172aa and UreB349–363aa (from pSadBA^877-FU2) (from UniProt P69996)
[3]
  stoichiometry N: 3

## SadA^1171 fused with Flag×3 and the UreB epitopes UreB158–172aa and UreB349–363aa (from pSadBA^1171-FU2) (from UniProt P69996)
[4]
  stoichiometry N: 3

## SadA^1292 fused with Flag×3 and the UreB epitopes UreB158–172aa and UreB349–363aa (from pSadBA^1292-FU2) (from UniProt P69996)
[5]
  stoichiometry N: 3

## SadA^1292 fused with N-terminal Flag×3-mScarlet (from pSadBA^1292-FM)
[6]
  stoichiometry N: 3

## SadA^1292 fused with N-terminal Flag×3-UreBm-mScarlet (from pSadBA^1292-FUM) (from UniProt P69996 111-377)
[7]
  stoichiometry N: 3
